The values below come from patent US5723436, “Calcineurin interacting protein compositions and methods” (The Board of Trustees of the Leland Stanford Junior …, dated 1998).

This assay concerns the target GAD (GAL4 activation domain alone, from pGAD) (yeast, UniProt P04386). Description: yeast GAL4 two-hybrid, fusion tested against the complementary GAL4 domain not fused to a second protein.

B1: GBT-A2 (G4BD-CNA2) (other)
chain: MKLLSSIEQACDICRLKKLKCSKEKPKCAKCLKNNWECRYSPKTKRSPLTRAHLTEVESRLERLEQLFLLIFPREDLDMILKMDSLQDIKALLTGLFVQDNVNKDAVTDRLASVETDMPLTLRQHRISATSSSEESSNKGQRQLTVSMSSDAIRNTEQINAAIKIIENKTERPQSSTTPIDSKASTVAAANSTATETSRDLTQYTLDDGRVVSTNRRIMNKVPAITSHVPTDEELFQPNGIPRHEFLRDHFKREGKLSAAQAARIVTLATELFSKEPNLISVPAPITVCGDIHGQYFDLLKLFEVGGDPATTSYLFLGDYVDRGSFSFECLIYLYSLKLNFNDHFWLLRGNHECKHLTSYFTFKNEMLHKYNLDIYEKCCESFNNLPLAALMNGQYLCVHGGISPELNSLQDINNLNRFREIPSHGLMCDLLWADPIEEYDEVLDKDLTEEDIVNSKTMVPHHGKMAPSRDMFVPNSVRGCSYAFTYRAACHFLQETGLLSIIRAHEAQDAGYRMYKNTKTLGFPSLLTLFSAPNYLDTYNNKAAILKYENNVMNIRQFNMTPHPYWLPDFMDVFTWSLPFVGEKVTEMLVAILNICTEDELENDTPVIEELVGTDKKLPQAGKSEATPQPATSASPKHASILDDEHRRKALRNKILAVAKVSRMYSVLREETNKVQFLKDHNSGVLPRGALSNGVKGLDEALSTFERARKHDLINEKLPPSLDELKNENKKYYEKVWQKVHEHDAKNDSK
As for B1, the binding result is reported as “no binding”.

B2: GBT-A1 (G4BD-CNA1) (other)
chain: MKLLSSIEQACDICRLKKLKCSKEKPKCAKCLKNNWECRYSPKTKRSPLTRAHLTEVESRLERLEQLFLLIFPREDLDMILKMDSLQDIKALLTGLFVQDNVNKDAVTDRLASVETDMPLTLRQHRISATSSSEESSNKGQRQLTVSMSKDLNSSRIKIIKPNDSYIKVDRKKDLTKYELENGKVISTKDRSYASVPAITGKIPSDEEVFDSKTGLPNHSFLREHFFHEGRLSKEQAIKILNMSTVALSKEPNLLKLKAPITICGDIHGQYYDLLKLFEVGGDPAEIDYLFLGDYVDRGAFSFECLIYLYSLKLNNLGRFWMLRGNHECKHLTSYFTFKNEMLHKYDMEVYDACCRSFNVLPLAALMNGQYFCVHGGISPELKSVEDVNKINRFREIPSRGLMCDLLWADPVENYDDARDGSEFDQSEDEFVPNSLRGCSFAFTFKASCKFLKANGLLSIIRAHEAQDAGYRMYKNNKVTGFPSLITMFSAPNYLDTYHNKAAVLKYEENVMNIRQFHMSPHPYWLPDFMDVFTWSLPFVGEKVTSMLVSILNICSEQELDPESEPKAAEETVKARANATKETGTPSDEKASSAILEDETRRKALRNKILAIAKVSRMFSVLREESEKVEYLKTMNAGVLPRGALARGTEGLNETLSTFEKARKEDLINEKLPPSLSEVEQEKIKYYEKILKGAEKKPQL
B2: the binding result is given as “no binding”.
